Measured values taken from the RNAGym collection of RNA variant scans (doi:10.1021/acssynbio.7b00057).

B1: Pistol ribozyme (parent)
chain: GGGUCGUUGUUCCAUAAUCGCGUGGAUAUGGCACGCAAGUUUCUACCGGGCACCGUAAAUGUCCGACUGGAGCCGUUCGGGCGGCUAUAAACAGACCUCAGGCCCGAAGCGUGGCGGCACCUGCCGCCGGUGGUAAAAAAGAUCGGAAGAGCACACGUCU

Variants of: B1
Experiment: aptazyme ON/OFF ratio, guanine; higher = stronger switching; co-transcriptional cleavage with and without guanine

Q: Which “aptazyme ON/OFF ratio” value does the source give for GGGUCGAUUGUCGAUAAUCGCGUGGAUAUGGCACGCAAGUUUCUACCGGGCACCGUAAAUGUCCGACUGGAGCCGUUCGGGCGGCUAUAAACAGACCUCAGGCCCGAAGCGUGGCGGCACCUGCCGCCGGUGGUAAAAAAGAUCGGAAGAGCACACGUCU here?
A: 1.14

Q: For GGGUCGAUUGUCAAUAAUCGCGUGGAUAUGGCACGCAAGUUUCUACCGGGCACCGUAAAUGUCCGACUGGAGCCGUUCGGGCGGCUAUAAACAGACCUCAGGCCCGAAGCGUGGCGGCACCUGCCGCCGGUGGUAAAAAAGAUCGGAAGAGCACACGUCU, which “aptazyme ON/OFF ratio” value is on record?
A: 1.33

Q: For GGGUCGAUUGUCUAUAAUCGCGUGGAUAUGGCACGCAAGUUUCUACCGGGCACCGUAAAUGUCCGACUGGAGCCGUUCGGGCGGCUAUAAACAGACCUCAGGCCCGAAGCGUGGCGGCACCUGCCGCCGGUGGUAAAAAAGAUCGGAAGAGCACACGUCU, which “aptazyme ON/OFF ratio” value is on record?
A: 1.54

Q: With GGGUCGAUUGACGAUAAUCGCGUGGAUAUGGCACGCAAGUUUCUACCGGGCACCGUAAAUGUCCGACUGGAGCCGUUCGGGCGGCUAUAAACAGACCUCAGGCCCGAAGCGUGGCGGCACCUGCCGCCGGUGGUAAAAAAGAUCGGAAGAGCACACGUCU as the variant, how does the “aptazyme ON/OFF ratio” value read?
A: 1.08

Q: For GGGUCGAUUGACUAUAAUCGCGUGGAUAUGGCACGCAAGUUUCUACCGGGCACCGUAAAUGUCCGACUGGAGCCGUUCGGGCGGCUAUAAACAGACCUCAGGCCCGAAGCGUGGCGGCACCUGCCGCCGGUGGUAAAAAAGAUCGGAAGAGCACACGUCU, which “aptazyme ON/OFF ratio” value is on record?
A: 1.05

Q: Which “aptazyme ON/OFF ratio” value does the source give for GGGUCGAUUGACAAUAAUCGCGUGGAUAUGGCACGCAAGUUUCUACCGGGCACCGUAAAUGUCCGACUGGAGCCGUUCGGGCGGCUAUAAACAGACCUCAGGCCCGAAGCGUGGCGGCACCUGCCGCCGGUGGUAAAAAAGAUCGGAAGAGCACACGUCU here?
A: 1.09

Q: For GGGUCGAUUGUGAAUAAUCGCGUGGAUAUGGCACGCAAGUUUCUACCGGGCACCGUAAAUGUCCGACUGGAGCCGUUCGGGCGGCUAUAAACAGACCUCAGGCCCGAAGCGUGGCGGCACCUGCCGCCGGUGGUAAAAAAGAUCGGAAGAGCACACGUCU, which “aptazyme ON/OFF ratio” value is on record?
A: 1.18

Q: With GGGUCGAUUGUGGAUAAUCGCGUGGAUAUGGCACGCAAGUUUCUACCGGGCACCGUAAAUGUCCGACUGGAGCCGUUCGGGCGGCUAUAAACAGACCUCAGGCCCGAAGCGUGGCGGCACCUGCCGCCGGUGGUAAAAAAGAUCGGAAGAGCACACGUCU as the variant, how does the “aptazyme ON/OFF ratio” value read?
A: 1.25

Q: Which “aptazyme ON/OFF ratio” value does the source give for GGGUCGAUUGUGUAUAAUCGCGUGGAUAUGGCACGCAAGUUUCUACCGGGCACCGUAAAUGUCCGACUGGAGCCGUUCGGGCGGCUAUAAACAGACCUCAGGCCCGAAGCGUGGCGGCACCUGCCGCCGGUGGUAAAAAAGAUCGGAAGAGCACACGUCU here?
A: 1.25

Q: Which “aptazyme ON/OFF ratio” value does the source give for GGGUCGAUUGACCAUAAUCGCGUGGAUAUGGCACGCAAGUUUCUACCGGGCACCGUAAAUGUCCGACUGGAGCCGUUCGGGCGGCUAUAAACAGACCUCAGGCCCGAAGCGUGGCGGCACCUGCCGCCGGUGGUAAAAAAGAUCGGAAGAGCACACGUCU here?
A: 1.08

Q: Which “aptazyme ON/OFF ratio” value does the source give for GGGUCGAUUGUCCAUAAUCGCGUGGAUAUGGCACGCAAGUUUCUACCGGGCACCGUAAAUGUCCGACUGGAGCCGUUCGGGCGGCUAUAAACAGACCUCAGGCCCGAAGCGUGGCGGCACCUGCCGCCGGUGGUAAAAAAGAUCGGAAGAGCACACGUCU here?
A: 1.75

Q: For GGGUCGAUUGUACAUAAUCGCGUGGAUAUGGCACGCAAGUUUCUACCGGGCACCGUAAAUGUCCGACUGGAGCCGUUCGGGCGGCUAUAAACAGACCUCAGGCCCGAAGCGUGGCGGCACCUGCCGCCGGUGGUAAAAAAGAUCGGAAGAGCACACGUCU, which “aptazyme ON/OFF ratio” value is on record?
A: 1.15

Q: With GGGUCGAUUGUGCAUAAUCGCGUGGAUAUGGCACGCAAGUUUCUACCGGGCACCGUAAAUGUCCGACUGGAGCCGUUCGGGCGGCUAUAAACAGACCUCAGGCCCGAAGCGUGGCGGCACCUGCCGCCGGUGGUAAAAAAGAUCGGAAGAGCACACGUCU as the variant, how does the “aptazyme ON/OFF ratio” value read?
A: 1.13

Q: For GGGUCGAUUGUUCAUAAUCGCGUGGAUAUGGCACGCAAGUUUCUACCGGGCACCGUAAAUGUCCGACUGGAGCCGUUCGGGCGGCUAUAAACAGACCUCAGGCCCGAAGCGUGGCGGCACCUGCCGCCGGUGGUAAAAAAGAUCGGAAGAGCACACGUCU, which “aptazyme ON/OFF ratio” value is on record?
A: 1.43

Q: With GGGUCGAUUGUUUAUAAUCGCGUGGAUAUGGCACGCAAGUUUCUACCGGGCACCGUAAAUGUCCGACUGGAGCCGUUCGGGCGGCUAUAAACAGACCUCAGGCCCGAAGCGUGGCGGCACCUGCCGCCGGUGGUAAAAAAGAUCGGAAGAGCACACGUCU as the variant, how does the “aptazyme ON/OFF ratio” value read?
A: 1.87

Q: With GGGUCGAUUGUUGAUAAUCGCGUGGAUAUGGCACGCAAGUUUCUACCGGGCACCGUAAAUGUCCGACUGGAGCCGUUCGGGCGGCUAUAAACAGACCUCAGGCCCGAAGCGUGGCGGCACCUGCCGCCGGUGGUAAAAAAGAUCGGAAGAGCACACGUCU as the variant, how does the “aptazyme ON/OFF ratio” value read?
A: 1.23

Q: With GGGUCGAUUGUUAAUAAUCGCGUGGAUAUGGCACGCAAGUUUCUACCGGGCACCGUAAAUGUCCGACUGGAGCCGUUCGGGCGGCUAUAAACAGACCUCAGGCCCGAAGCGUGGCGGCACCUGCCGCCGGUGGUAAAAAAGAUCGGAAGAGCACACGUCU as the variant, how does the “aptazyme ON/OFF ratio” value read?
A: 1.32

Q: Which “aptazyme ON/OFF ratio” value does the source give for GGGUCGAUUGAUGAUAAUCGCGUGGAUAUGGCACGCAAGUUUCUACCGGGCACCGUAAAUGUCCGACUGGAGCCGUUCGGGCGGCUAUAAACAGACCUCAGGCCCGAAGCGUGGCGGCACCUGCCGCCGGUGGUAAAAAAGAUCGGAAGAGCACACGUCU here?
A: 1.16

Q: With GGGUCGAUUGAUAAUAAUCGCGUGGAUAUGGCACGCAAGUUUCUACCGGGCACCGUAAAUGUCCGACUGGAGCCGUUCGGGCGGCUAUAAACAGACCUCAGGCCCGAAGCGUGGCGGCACCUGCCGCCGGUGGUAAAAAAGAUCGGAAGAGCACACGUCU as the variant, how does the “aptazyme ON/OFF ratio” value read?
A: 1.16

Q: With GGGUCGAUUGAUUAUAAUCGCGUGGAUAUGGCACGCAAGUUUCUACCGGGCACCGUAAAUGUCCGACUGGAGCCGUUCGGGCGGCUAUAAACAGACCUCAGGCCCGAAGCGUGGCGGCACCUGCCGCCGGUGGUAAAAAAGAUCGGAAGAGCACACGUCU as the variant, how does the “aptazyme ON/OFF ratio” value read?
A: 1.26

Q: For GGGUCGAUUGAGUAUAAUCGCGUGGAUAUGGCACGCAAGUUUCUACCGGGCACCGUAAAUGUCCGACUGGAGCCGUUCGGGCGGCUAUAAACAGACCUCAGGCCCGAAGCGUGGCGGCACCUGCCGCCGGUGGUAAAAAAGAUCGGAAGAGCACACGUCU, which “aptazyme ON/OFF ratio” value is on record?
A: 1.31

Q: Which “aptazyme ON/OFF ratio” value does the source give for GGGUCGAUUGAGAAUAAUCGCGUGGAUAUGGCACGCAAGUUUCUACCGGGCACCGUAAAUGUCCGACUGGAGCCGUUCGGGCGGCUAUAAACAGACCUCAGGCCCGAAGCGUGGCGGCACCUGCCGCCGGUGGUAAAAAAGAUCGGAAGAGCACACGUCU here?
A: 1.41

Q: With GGGUCGAUUGAGGAUAAUCGCGUGGAUAUGGCACGCAAGUUUCUACCGGGCACCGUAAAUGUCCGACUGGAGCCGUUCGGGCGGCUAUAAACAGACCUCAGGCCCGAAGCGUGGCGGCACCUGCCGCCGGUGGUAAAAAAGAUCGGAAGAGCACACGUCU as the variant, how does the “aptazyme ON/OFF ratio” value read?
A: 1.21

Q: For GGGUCGAUUGUAGAUAAUCGCGUGGAUAUGGCACGCAAGUUUCUACCGGGCACCGUAAAUGUCCGACUGGAGCCGUUCGGGCGGCUAUAAACAGACCUCAGGCCCGAAGCGUGGCGGCACCUGCCGCCGGUGGUAAAAAAGAUCGGAAGAGCACACGUCU, which “aptazyme ON/OFF ratio” value is on record?
A: 1.13

Q: Which “aptazyme ON/OFF ratio” value does the source give for GGGUCGAUUGUAAAUAAUCGCGUGGAUAUGGCACGCAAGUUUCUACCGGGCACCGUAAAUGUCCGACUGGAGCCGUUCGGGCGGCUAUAAACAGACCUCAGGCCCGAAGCGUGGCGGCACCUGCCGCCGGUGGUAAAAAAGAUCGGAAGAGCACACGUCU here?
A: 1.16

Q: For GGGUCGAUUGUAUAUAAUCGCGUGGAUAUGGCACGCAAGUUUCUACCGGGCACCGUAAAUGUCCGACUGGAGCCGUUCGGGCGGCUAUAAACAGACCUCAGGCCCGAAGCGUGGCGGCACCUGCCGCCGGUGGUAAAAAAGAUCGGAAGAGCACACGUCU, which “aptazyme ON/OFF ratio” value is on record?
A: 1.3

Q: With GGGUCGAUUCGUUAUAAUCGCGUGGAUAUGGCACGCAAGUUUCUACCGGGCACCGUAAAUGUCCGACUGGAGCCGUUCGGGCGGCUAUAAACAGACCUCAGGCCCGAAGCGUGGCGGCACCUGCCGCCGGUGGUAAAAAAGAUCGGAAGAGCACACGUCU as the variant, how does the “aptazyme ON/OFF ratio” value read?
A: 1.27

Q: With GGGUCGAUUCGCUAUAAUCGCGUGGAUAUGGCACGCAAGUUUCUACCGGGCACCGUAAAUGUCCGACUGGAGCCGUUCGGGCGGCUAUAAACAGACCUCAGGCCCGAAGCGUGGCGGCACCUGCCGCCGGUGGUAAAAAAGAUCGGAAGAGCACACGUCU as the variant, how does the “aptazyme ON/OFF ratio” value read?
A: 1.2

Q: Which “aptazyme ON/OFF ratio” value does the source give for GGGUCGAUUCGCGAUAAUCGCGUGGAUAUGGCACGCAAGUUUCUACCGGGCACCGUAAAUGUCCGACUGGAGCCGUUCGGGCGGCUAUAAACAGACCUCAGGCCCGAAGCGUGGCGGCACCUGCCGCCGGUGGUAAAAAAGAUCGGAAGAGCACACGUCU here?
A: 1.09

Q: With GGGUCGAUUCGCAAUAAUCGCGUGGAUAUGGCACGCAAGUUUCUACCGGGCACCGUAAAUGUCCGACUGGAGCCGUUCGGGCGGCUAUAAACAGACCUCAGGCCCGAAGCGUGGCGGCACCUGCCGCCGGUGGUAAAAAAGAUCGGAAGAGCACACGUCU as the variant, how does the “aptazyme ON/OFF ratio” value read?
A: 1.13

Q: With GGGUCGAUUGAAAAUAAUCGCGUGGAUAUGGCACGCAAGUUUCUACCGGGCACCGUAAAUGUCCGACUGGAGCCGUUCGGGCGGCUAUAAACAGACCUCAGGCCCGAAGCGUGGCGGCACCUGCCGCCGGUGGUAAAAAAGAUCGGAAGAGCACACGUCU as the variant, how does the “aptazyme ON/OFF ratio” value read?
A: 1.14

Q: Which “aptazyme ON/OFF ratio” value does the source give for GGGUCGAUUGAAGAUAAUCGCGUGGAUAUGGCACGCAAGUUUCUACCGGGCACCGUAAAUGUCCGACUGGAGCCGUUCGGGCGGCUAUAAACAGACCUCAGGCCCGAAGCGUGGCGGCACCUGCCGCCGGUGGUAAAAAAGAUCGGAAGAGCACACGUCU here?
A: 1.17

Q: For GGGUCGAUUGAAUAUAAUCGCGUGGAUAUGGCACGCAAGUUUCUACCGGGCACCGUAAAUGUCCGACUGGAGCCGUUCGGGCGGCUAUAAACAGACCUCAGGCCCGAAGCGUGGCGGCACCUGCCGCCGGUGGUAAAAAAGAUCGGAAGAGCACACGUCU, which “aptazyme ON/OFF ratio” value is on record?
A: 1.18

Q: Which “aptazyme ON/OFF ratio” value does the source give for GGGUCGAUUGAACAUAAUCGCGUGGAUAUGGCACGCAAGUUUCUACCGGGCACCGUAAAUGUCCGACUGGAGCCGUUCGGGCGGCUAUAAACAGACCUCAGGCCCGAAGCGUGGCGGCACCUGCCGCCGGUGGUAAAAAAGAUCGGAAGAGCACACGUCU here?
A: 1.2

Q: Which “aptazyme ON/OFF ratio” value does the source give for GGGUCGAUUGAUCAUAAUCGCGUGGAUAUGGCACGCAAGUUUCUACCGGGCACCGUAAAUGUCCGACUGGAGCCGUUCGGGCGGCUAUAAACAGACCUCAGGCCCGAAGCGUGGCGGCACCUGCCGCCGGUGGUAAAAAAGAUCGGAAGAGCACACGUCU here?
A: 1.06

Q: Which “aptazyme ON/OFF ratio” value does the source give for GGGUCGAUUGAGCAUAAUCGCGUGGAUAUGGCACGCAAGUUUCUACCGGGCACCGUAAAUGUCCGACUGGAGCCGUUCGGGCGGCUAUAAACAGACCUCAGGCCCGAAGCGUGGCGGCACCUGCCGCCGGUGGUAAAAAAGAUCGGAAGAGCACACGUCU here?
A: 1.33
